Data from article PMC5986005, “Catalysis of transthiolacylation in the active centers of dihydrolipoamide acyltransacetylase components of 2‐oxo acid dehydrogenase complexes” (FEBS Open Bio, 2018).
Numbering of substitutions follows the chain as printed. Names may count otherwise.

Columns and labels:
[1] = molecular target: T1, CDo (E2o catalytic domain) (Escherichia coli, UniProt P0AFG6); assay: reverse succinyl transfer to dihydro-LDo, ESI FT-MS; type: biochemical; settings: 40 μM dihydro-LDo, 0.10 mM TCEP, 0.15 mM succinyl-CoA, 35 mM NH4HCO3 pH 7.5, 30 °C
T1 construct: gene sucB; separate dihydro-LDo (residues 1-105) as acyl acceptor

E2o = molecular target: T2, E2o (Escherichia coli, UniProt P0AFG6, H376W); assay: intrinsic Trp fluorescence quenching (ex […] nm); type: binding
T2 construct: gene sucB; full-length E2o alone, pCA24N plasmid, expressed in E. coli, PEG precipitation and size exclusion

[2] = molecular target: T3, E1o (with LDo as acyl acceptor) (Escherichia coli, UniProt P0AFG3); assay: reductive acylation of LDo, ESI FT-MS; type: biochemical
T3 construct: gene sucA; E1o purified on Ni-Sepharose; acceptor is the separate E2o lipoyl domain (residues 1-105, His6-tagged, lipoylated in vitro); with Dihydrolipoyllysine-residue succinyltransferase component of 2-oxoglutarate dehydrogenase complex

purified protein [3] = substrate: CC(C)(COP(=O)(O)OP(=O)(O)OC[C@H]1O[C@@H](n2cnc3c(N)ncnc32)[C@H](O)[C@@H]1OP(=O)(O)O)[C@@H](O)C(=O)NCCC(=O)NCCS; assay: purified protein; type: biochemical, Escherichia coli; settings: 2-oxoglutarate, NAD+, ThDP, Mg2+, kcat of overall reaction
purified protein [4] = substrate: O=C(O)CCC(=O)C(=O)O; assay: purified protein; type: biochemical, Escherichia coli; settings: reassembled complex with wild-type E2o; CoA, NAD+, ThDP, Mg2+; kcat of overall reaction
[5] = reassembled complex with wild-type E2o

T1 sequence (P0AFG6 94-405): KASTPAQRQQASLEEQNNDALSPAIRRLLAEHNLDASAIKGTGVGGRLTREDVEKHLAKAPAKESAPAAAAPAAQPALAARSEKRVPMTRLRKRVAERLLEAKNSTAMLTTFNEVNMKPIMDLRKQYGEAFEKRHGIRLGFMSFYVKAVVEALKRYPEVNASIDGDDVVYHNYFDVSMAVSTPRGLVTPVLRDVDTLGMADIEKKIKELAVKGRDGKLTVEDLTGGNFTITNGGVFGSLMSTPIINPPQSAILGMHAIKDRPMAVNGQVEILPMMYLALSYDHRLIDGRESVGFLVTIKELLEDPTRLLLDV

Question: How did the “reverse succinyl transfer to dihydro-LDo, ESI FT-MS” value [1] turn out when CC(C)(COP(=O)(O)OP(=O)(O)OC[C@H]1O[C@@H](n2cnc3c(N)ncnc32)[C@H](O)[C@@H]1OP(=O)(O)O)[C@@H](O)C(=O)NCCC(=O)NCCSC(=O)CCC(=O)O [succinyl-CoA, succinyl-coenzyme A] was run?
Answer: rate of succinyl transfer from succinyl‐CoA to the dihydro‐LDo

Question: What about the Kd (E2o) of the same molecule?
Answer: 47 µM

Question: With O=C(O)CCCC(=O)C(=O)O [OA, 2-oxoadipate] as the molecule, how does the “reductive acylation of LDo, ESI FT-MS” value ([2]; 100 μM LDo, 0.1 mM ThDP, 0.5 mM MgCl2, 35 mM NH4HCO3 pH 7.5, 2.5 mM OA) read?
Answer: could also be used by E1o as substrates for reductive acylation of LDo

Question: With CC(C)(COP(=O)(O)OP(=O)(O)OC[C@H]1O[C@@H](n2cnc3c(N)ncnc32)[C@H](O)[C@@H]1OP(=O)(O)O)[C@@H](O)C(=O)NCCC(=O)NCCS [CoA, coenzyme A] as the molecule, how does the Kd (E2o) read?
Answer: 61.2 µM

Question: With CC(=O)C(=O)O [pyruvate] as the molecule, how does the “reductive acylation of LDo, ESI FT-MS” value ([2]; LDo as acyl acceptor, ThDP, Mg2+) read?
Answer: could also be used by E1o as substrates for reductive acylation of LDo

B1: OGDHc assembled from E1o, E2o and E3 (CoA site on E2o) (Escherichia coli K-12; H376W) (protein)
chain: SSVDILVPDLPESVADATVATWHKKPGDAVVRDEVLVEIETDKVVLEVPASADGILDAVLEDEGTTVTSRQILGRLREGNSAGKETSAKSEEKASTPAQRQQASLEEQNNDALSPAIRRLLAEHNLDASAIKGTGVGGRLTREDVEKHLAKAPAKESAPAAAAPAAQPALAARSEKRVPMTRLRKRVAERLLEAKNSTAMLTTFNEVNMKPIMDLRKQYGEAFEKRHGIRLGFMSFYVKAVVEALKRYPEVNASIDGDDVVYHNYFDVSMAVSTPRGLVTPVLRDVDTLGMADIEKKIKELAVKGRDGKLTVEDLTGGNFTITNGGVFGSLMSTPIINPPQSAILGMHAIKDRPMAVNGQVEILPMMYLALSYDWRLIDGRESVGFLVTIKELLEDPTRLLLDV
notes: components expressed separately in E. coli (pCA24N in AG1 for E1o and E2o) and reassembled at E1o:E2o:E3 mass ratio 1:1:1; with 2-oxoglutarate dehydrogenase E1 component; Dihydrolipoyl dehydrogenase
Question: Which Km (purified protein [3]; reassembled complex) does the source give for B1 here?
Answer: 13.3 µM

Question: What about the kcat (purified protein [3]; reassembled complex) of the same molecule?
Answer: 28.8 s⁻¹

B2: OGDHc assembled from E1o, E2o and E3 (CoA site on E2o) (Escherichia coli K-12; D380A) (protein)
chain: B1 chain with W375H, D379A
notes: as for B1
Question: With B2 as the molecule, how does the Km (purified protein [3]; reassembled complex) read?
Answer: 21.1 µM

Question: And the kcat (purified protein [3]; reassembled complex)?
Answer: 4.6 s⁻¹

B3: OGDHc assembled from E1o, E2o and E3 (CoA site on E2o) (Escherichia coli K-12) (protein)
chain: B1 chain with W375H
notes: as for B1
Question: Which results are given for B3?
Answer: Km (purified protein [3]; [5]): 20.4 µM; kcat (purified protein [3]; [5]): 48.0 s⁻¹

B4: OGDHc assembled from E1o, E2o and E3 (CoA site on E2o) (Escherichia coli K-12; H376G) (protein)
chain: B1 chain with W375G
notes: as for B1
Question: For B4, which Km (purified protein [3]; reassembled complex) is on record?
Answer: 20.6 µM

Question: And the kcat (purified protein [3]; reassembled complex)?
Answer: 5.76 s⁻¹

B5: OGDHc assembled from E1o, E2o and E3 (CoA site on E2o) (Escherichia coli K-12; R377A) (protein)
chain: B1 chain with W375H, R376A
notes: as for B1
Question: How did the Km (purified protein [3]; reassembled complex) turn out when B5 was run?
Answer: 19.8 µM

Question: And the kcat (purified protein [3]; reassembled complex)?
Answer: 27.0 s⁻¹

B6: OGDHc assembled from E1o, E2o and E3 (CoA site on E2o) (Escherichia coli K-12; T324A) (protein)
chain: B1 chain with T323A, W375H
notes: as for B1
Question: What does the source list for B6?
Answer: Km (purified protein [3]; reassembled complex): 23.3 µM; kcat (purified protein [3]; reassembled complex): 21.7 s⁻¹

B7: OGDHc assembled from E1o, E2o and E3 (2-oxoglutarate site on E1o) (Escherichia coli K-12) (protein)
chain: MQNSALKAWLDSSYLSGANQSWIEQLYEDFLTDPDSVDANWRSTFQQLPGTGVKPDQFHSQTREYFRRLAKDASRYSSTISDPDTNVKQVKVLQLINAYRFRGHQHANLDPLGLWQQDKVADLDPSFHDLTEADFQETFNVGSFASGKETMKLGELLEALKQTYCGPIGAEYMHITSTEEKRWIQQRIESGRATFNSEEKKRFLSELTAAEGLERYLGAKFPGAKRFSLEGGDALIPMLKEMIRHAGNSGTREVVLGMAHRGRLNVLVNVLGKKPQDLFDEFAGKHKEHLGTGDVKYHMGFSSDFQTDGGLVHLALAFNPSHLEIVSPVVIGSVRARLDRLDEPSSNKVLPITIHGDAAVTGQGVVQETLNMSKARGYEVGGTVRIVINNQVGFTTSNPLDARSTPYCTDIGKMVQAPIFHVNADDPEAVAFVTRLALDFRNTFKRDVFIDLVCYRRHGHNEADEPSATQPLMYQKIKKHPTPRKIYADKLEQEKVATLEDATEMVNLYRDALDAGDCVVAEWRPMNMHSFTWSPYLNHEWDEEYPNKVEMKRLQELAKRISTVPEAVEMQSRVAKIYGDRQAMAAGEKLFDWGGAENLAYATLVDEGIPVRLSGEDSGRGTFFHRHAVIHNQSNGSTYTPLQHIHNGQGAFRVWDSVLSEEAVLAFEYGYATAEPRTLTIWEAQFGDFANGAQVVIDQFISSGEQKWGRMCGLVMLLPHGYEGQGPEHSSARLERYLQLCAEQNMQVCVPSTPAQVYHMLRRQALRGMRRPLVVMSPKSLLRHPLAVSSLEELANGTFLPAIGEIDELDPKGVKRVVMCSGKVYYDLLEQRRKNNQHDVAIVRIEQLYPFPHKAMQEVLQQFAHVKDFVWCQEEPLNQGAWYCSQHHFREVIPFGASLRYAGRPASASPAVGYMSVHQKQQQDLVNDALNVE
notes: components expressed separately in E. coli (pCA24N in AG1 for E1o and E2o; E1o purified on Ni-Sepharose) and reassembled at E1o:E2o:E3 mass ratio 1:1:1; with Dihydrolipoyllysine-residue succinyltransferase component of 2-oxoglutarate dehydrogenase complex; Dihydrolipoyl dehydrogenase
Question: For B7, which Km (purified protein [4]) is on record?
Answer: 50 ± 11 µM

Question: And the kcat (purified protein [4])?
Answer: 48.0 s⁻¹

Question: And the kcat/Km (purified protein [4])?
Answer: 1.07e+06 M⁻¹ s⁻¹
